Molecular target: BcSpd1 (Botrytis cinerea, UniProt A0A384JL35 1-465)
Test: EMSA; excess unlabeled probe blocked the shift; LightShift Chemiluminescent EMSA kit procedure (Thermo Scientific); buffer, salt, pH and temperature not given
Details: protein: recombinant; tags: His (pET28a); chain copies: 2; blunt

B1: BcQdo promoter fragment 3 (E-BcQdo-Pr3) (dsDNA)
DNA 1: TACCGAACGCCCACAAGCCTTGAATATAGATGTACCGGTACTGCTGCCGA
DNA 2: TCGGCAGCAGTACCGGTACATCTATATTCAAGGCTTGTGGGCGTTCGGTA
B1: binds.

From PMC9280406, “The Necrotroph Botrytis cinerea BcSpd1 Plays a Key Role in Modulating Both Fungal Pathogenic Factors and Plant Disease Development”
